Where a chain is given by its changes, count along the chain named.
Columns and labels:
[1] = tested on: T1, Peptide P1 (corneodesmosin fragment with L at position 40 of L20815)
T1 sequence: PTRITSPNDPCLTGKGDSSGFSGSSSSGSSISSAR

[2] = tested on: T2, Peptide P2 (corneodesmosin fragment with F at position 40 of L20815)
T2 sequence: T1 sequence with L12F

chymotrypsin
products of proteolysis after exposure of the peptide to chymotrypsin [1]: peptide P1 with L at position 40 of L20815 gives two products of proteolysis: PTRITSPNDPCL40TGKGDSSGF (SEQ ID NO 23) and SGSSSSGSSISSAR (SEQ ID NO 24)
products of proteolysis after exposure of the peptide to chymotrypsin [2]: peptide P2 with F at position 40 of L20815 gives three small peptides PTRITSPNDPCF (SEQ ID NO 25), TGKGDSSGF (SEQ ID NO 26) and SGSSSSGSSISSAR (SEQ ID NO 24)

Source: patent US20080292615
